Assays:
[1] = target: T1, εPKC (Rattus norvegicus, UniProt P09216); settings: from cited literature; cited from earlier work
T1 sequence (P09216 1-737): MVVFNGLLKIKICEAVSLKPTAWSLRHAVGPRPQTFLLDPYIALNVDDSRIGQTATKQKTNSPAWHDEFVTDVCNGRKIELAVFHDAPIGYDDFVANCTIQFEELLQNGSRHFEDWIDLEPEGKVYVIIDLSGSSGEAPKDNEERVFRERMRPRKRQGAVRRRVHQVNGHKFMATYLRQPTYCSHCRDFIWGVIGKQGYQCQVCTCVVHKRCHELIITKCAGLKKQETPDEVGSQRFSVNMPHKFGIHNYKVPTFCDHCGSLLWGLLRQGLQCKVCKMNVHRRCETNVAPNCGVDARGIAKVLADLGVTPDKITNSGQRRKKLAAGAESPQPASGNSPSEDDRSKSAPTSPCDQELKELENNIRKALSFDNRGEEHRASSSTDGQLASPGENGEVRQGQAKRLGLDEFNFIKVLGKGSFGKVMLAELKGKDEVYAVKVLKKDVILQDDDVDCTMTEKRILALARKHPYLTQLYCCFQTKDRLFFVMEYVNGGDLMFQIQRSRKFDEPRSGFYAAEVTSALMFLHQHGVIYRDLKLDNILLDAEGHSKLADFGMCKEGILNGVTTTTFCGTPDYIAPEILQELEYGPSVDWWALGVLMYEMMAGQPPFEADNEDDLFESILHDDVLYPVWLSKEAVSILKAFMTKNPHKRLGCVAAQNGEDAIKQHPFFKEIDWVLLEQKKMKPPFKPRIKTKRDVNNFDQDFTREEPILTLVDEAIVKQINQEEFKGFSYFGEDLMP

[2] = test system: cardiac allografts; assay: Heterotopic cardiac allograft transplantation in mice: graft beating score, toxicity, body weight; assay type: in vivo
Method: In studies performed in support of the present methods, hearts of FVB mice (H-2^q) were transplanted into C57BL/6 mice (H-2^b) to provide an animal model for allograft transplantation. Following transplantation, an isozyme-specific εPKC inhibitor was administered to the transplant recipients. The particular inhibitor was TAT47-57-εV1-2 (i.e., εV1-2), which is described herein.
The εPKC-specific inhibitor, εV1-2, or the carrier/control peptide, TAT, was administered to the recipient animals using osmotic pumps to provide continuous treatment from day 3 following allograft transplantation until sacrifice on day 30. All animals were given 20 mg/kg/day of cyclosporine A (CyA) to ensure survival.
Male […] (H-2^q) and C57BL/6J (H-2^b) mice, 6-8 weeks old, were purchased from Jackson Laboratory (Bar Harbor, Me.) and housed at the animal facility at Stanford University Medical Center (Stanford, Calif.). The εVB mice were used as allograft donors and the C57BL/6J mice were used as recipients. […]
Allograft recipient mice were monitored daily. Graft viability was assessed by direct abdominal palpation of the heterotopically transplanted hearts and expressed as beating score, assessed by the Stanford cardiac surgery lab graft scoring system (Tanaka, M. et al. (2004) Circulation 110:II194-9).

| Compound | function on εPKC (agonist / antagonist) [1] | toxic effects ([2]; allograft recipient mice treated day 3-30, compared to TAT-treated group) | body weight ([2]; allograft recipient mice, Mean±SEM) [g] |
| --- | --- | --- | --- |
| HNAPIGYD | functioned as a εPKC antatgonist/inhibitor |  |  |
| CC(C)C[C@H](NC(=O)[C@H](CO)NC(=O)[C@@H](NC(=O)[C@H](C)NC(=O)[C@H](CCC(=O)O)NC(=O)[C@@H](N)CSSC[C@H](N)C(=O)N[C@@H](Cc1ccc(O)cc1)C(=O)NCC(=O)N[C@@H](CCCNC(=N)N)C(=O)N[C@@H](CCCCN)C(=O)N[C@@H](CCCCN)C(=O)N[C@@H](CCCNC(=N)N)C(=O)N[C@@H](CCCNC(=N)N)C(=O)N[C@@H](CCC(N)=O)C(=O)N[C@@H](CCCNC(=N)N)C(=O)N[C@@H](CCCNC(=N)N)C(=O)N[C@@H](CCCNC(=N)N)C(=O)O)C(C)C)C(=O)N[C@@H](CCCCN)C(=O)N1CCC[C@H]1C(=O)N[C@H](C(=O)O)[C@@H](C)O [εV1-2] |  | did not demonstrate toxic effects | 21.7 ± 0.9 |
| ψεRACK: peptide HDAPIGYD (εPKC 85-92; SEQ ID NO: 9), εPKC-selective agonist | functioned as a εPKC-selective agonist |  |  |
